We go through one molecule from US20100105141, “Sulfonylurea-Responsive Repressor Proteins” (Pioneer Hi-Bred International, Inc., published 2010).

The data set addresses L7-1F08-A11 (L7-A11, EsR2) (synthetic, UniProt P04483 SEQ:1-207, L55M,H64A,F67Y,F86M,H100C,R104G,P105F,K108Q,L113A,Q116S,L134M,S135Q,H139I,F140Y, …). Kind of data set: EMSA; 5 pmol DNA, 20 mM Tris-HCl pH 8.0, 10 mM EDTA, RT 0.5 h; released by ethametsulfuron dose-dependently, less by chlorsulfuron; no change with atc. To be noted: chain copies: 2.

Procedure: Five pmol of TetO or control DNA was mixed with the indicated amounts (FIG. 7) of ethametsulfuron repressor protein (L7A11) or BSA control with or without inducer in complex buffer containing 20 mM Tris-HCl (pH8.0) and 10 mM EDTA. The mixture was incubated at room temperature for 0.5 hour before loading onto the gel. The reaction was electrophoresed on a Novex 6% DNA retardation gel (Invitrogen, EC6365BOX) at room temperature, 38 V in 0.5×TBE buffer for about 2 hours. DNA was detected by ethidium bromide staining.

B1: tetO 48 bp (dsDNA)
DNA 1: CCTAATTTTTGTTGACACTCTATCATTGATAGAGTTATTTTACCACTC
DNA 2: GAGTGGTAAAATAACTCTATCAATGATAGAGTGTCAACAAAAATTAGG
For the molecule B1, the binding result is given as “binds”.
